Measured values reported in paper PMC6219519.

How the values were obtained:
[1] = molecular target: (H3-H4)2 tetramer (wild type Xenopus laevis recombinant histones) (Xenopus laevis) (UniProt P84233); experiment: FRET or BRET; single-molecule FRET with multi-parameter fluorescence detection, dynPDA and trace analysis, global four-state kinetic model; IβIα-wt nucleosomes on 170 bp Widom 601 DNA (dyes on the DNA), 20 pM labelled, total concentration varied with unlabelled nucleosomes; 150 mM NaCl, TE buffer pH 7.5, 1 mM ascorbic acid, 0.01% Nonidet P40; hexasome and tetramer stand on the DNA
[2] = molecular target: hexasome: (H3-H4)2 tetramer with one H2A-H2B dimer on 170 bp Widom 601 DNA (Xenopus laevis) (UniProt P84233); experiment: as above

- Kd [1]: > 0.002 nM
- relaxation time tR of hexasome/tetrasome exchange (estimated for [H2A-H2B] ≈10 pM) [1]: > 10000 s
- Kd [2]: 0.039 nM
- relaxation time tR of octasome/hexasome exchange (estimated for [H2A-H2B] ≈10 pM) [2]: < 300 s
Substance: H2A-H2B dimer (wild type Xenopus laevis recombinant histones) (from UniProt P06897 2-120; P02281 2-126) (complex)
